The record followed here is IntAct's records for PubMed 26308901.

Sequences and labels used below:
B1: Phytosulfokine receptor 1 (Daucus carota), Q8LPB4 (parent)
chain: MGVLRVYVILILVGFCVQIVVVNSQNLTCNSNDLKALEGFMRGLESSIDGWKWNESSSFSSNCCDWVGISCKSSVSLGLDDVNESGRVVELELGRRKLSGKLSESVAKLDQLKVLNLTHNSLSGSIAASLLNLSNLEVLDLSSNDFSGLFPSLINLPSLRVLNVYENSFHGLIPASLCNNLPRIREIDLAMNYFDGSIPVGIGNCSSVEYLGLASNNLSGSIPQELFQLSNLSVLALQNNRLSGALSSKLGKLSNLGRLDISSNKFSGKIPDVFLELNKLWYFSAQSNLFNGEMPRSLSNSRSISLLSLRNNTLSGQIYLNCSAMTNLTSLDLASNSFSGSIPSNLPNCLRLKTINFAKIKFIAQIPESFKNFQSLTSLSFSNSSIQNISSALEILQHCQNLKTLVLTLNFQKEELPSVPSLQFKNLKVLIIASCQLRGTVPQWLSNSPSLQLLDLSWNQLSGTIPPWLGSLNSLFYLDLSNNTFIGEIPHSLTSLQSLVSKENAVEEPSPDFPFFKKKNTNAGGLQYNQPSSFPPMIDLSYNSLNGSIWPEFGDLRQLHVLNLKNNNLSGNIPANLSGMTSLEVLDLSHNNLSGNIPPSLVKLSFLSTFSVAYNKLSGPIPTGVQFQTFPNSSFEGNQGLCGEHASPCHITDQSPHGSAVKSKKNIRKIVAVAVGTGLGTVFLLTVTLLIILRTTSRGEVDPEKKADADEIELGSRSVVLFHNKDSNNELSLDDILKSTSSFNQANIIGCGGFGLVYKATLPDGTKVAIKRLSGDTGQMDREFQAEVETLSRAQHPNLVHLLGYCNYKNDKLLIYSYMDNGSLDYWLHEKVDGPPSLDWKTRLRIARGAAEGLAYLHQSCEPHILHRDIKSSNILLSDTFVAHLADFGLARLILPYDTHVTTDLVGTLGYIPPEYGQASVATYKGDVYSFGVVLLELLTGRRPMDVCKPRGSRDLISWVLQMKTEKRESEIFDPFIYDKDHAEEMLLVLEIACRCLGENPKTRPTTQQLVSWLENIDVSS
partner: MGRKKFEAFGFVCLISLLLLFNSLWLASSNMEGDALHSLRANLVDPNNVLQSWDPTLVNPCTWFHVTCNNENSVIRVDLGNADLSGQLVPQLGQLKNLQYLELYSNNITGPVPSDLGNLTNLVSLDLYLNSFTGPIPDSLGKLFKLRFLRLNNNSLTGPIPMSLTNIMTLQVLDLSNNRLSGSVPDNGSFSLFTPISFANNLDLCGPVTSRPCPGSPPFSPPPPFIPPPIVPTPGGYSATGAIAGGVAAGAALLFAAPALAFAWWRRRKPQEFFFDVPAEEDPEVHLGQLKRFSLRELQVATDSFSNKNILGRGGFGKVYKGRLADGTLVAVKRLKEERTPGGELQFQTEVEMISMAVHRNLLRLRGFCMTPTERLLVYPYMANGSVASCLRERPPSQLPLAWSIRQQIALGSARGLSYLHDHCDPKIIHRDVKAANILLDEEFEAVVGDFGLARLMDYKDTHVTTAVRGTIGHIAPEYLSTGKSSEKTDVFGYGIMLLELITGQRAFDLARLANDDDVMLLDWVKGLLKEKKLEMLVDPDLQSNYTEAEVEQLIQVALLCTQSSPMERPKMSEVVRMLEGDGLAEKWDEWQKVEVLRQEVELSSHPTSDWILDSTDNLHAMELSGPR
B2: Somatic embryogenesis receptor kinase 2 (Arabidopsis thaliana (Mouse-ear cress)), Q9XIC7 (parent)
chain: B1 partner
partner: B1 chain

Variants of B1 are the subject of one experiment. The settings on record: with serk2_arath SERK2, Q9XIC7.
For T629Y, the “effect of a mutation on the interaction” value was “disrupting interaction strength”.

For S608Y, the “effect of a mutation on the interaction” value is reported as “disrupting interaction strength”.

F606D: the “effect of a mutation on the interaction” value was “disrupting interaction strength”.

The next experiment covers variants of B2. The settings on record: with pskr1_dauca PSKR.
For T62Y, the “effect of a mutation on the interaction” value is reported as “disrupting interaction strength”.
